According to US5714144A, “Human tissue-type plasminogen activator variant” (Genentech, Inc., priority 1995, dated 1998):
Where “and” joins values, the source holds several entries; their conditions need not be identical. Equal entries are not always repeated. Where two headings read alike, the source gives them in different places.

What was measured:
[1] = removal of sialic acid or chemical modification of carbohydrate; cited from earlier work
[2] = Pharmacokinetics of unlabeled rt-PA in rabbits, immunoreactive t-PA by sandwich ELISA, i.v. bolus; assay type: in vivo; details: for Microconstant K10: elimination from central compartment; for Microconstant K10 / Microconstant K12 / Microconstant K21: Table 3; for Microconstant K12 / Microconstant K21: equilibration with peripheral compartment
Protocol: (§1) The unlabeled human tissue-type plasminogen activator was used as a carrier for the trace amount of labeled human tissue-type plasminogen activator in order to achieve therapeutic levels and to avoid alterations in the pharmacokinetics that could arise from concentration dependence in the clearance pathways. Serial arterial blood samples were collected over a 26 minute period and placed immediately into tubes containing a lyophilized mixture of D-phe-pro-arg-[…] (PPACK) and EDTA at final concentrations of 1 μM and 4.8 mM, respectively. The tubes were placed on ice and plasma was separated. Trichloroacetic acid (TGA) precipitable (intact human tissue-type plasminogen activator) and total radioactivity were measured in each plasma sample.
(§2) The following exponential equation was used: Cp=Ae^-αt +Be^-βt, where Cp is the concentration of rt-PA in the plasma at any time, t and A and B are the y intercepts of the fast and slow clearance phases which have slopes of α and β, respectively. The t1/2 for the α and β phases were calculated as the ratio: 1n2/slope. The results from the curve stripping procedure were used as initial approximations to fit the data to a biexponential model using PC NONLIN. One data set (FIG. 4) could not be fit using PC NONLIN so the data from the curve stripping procedure were used. Co, the plasma concentration at zero time, was the sum of A and B. Vo was calculated as dose divided by Co. Area under the curve (AUC) was determined by formula AUC=A/α+B/β. […] AUC was then used to calculate the clearance using the formula, Clearance=Dose/AUC. The relative contributions of the alpha and beta phases were calculated from the following formulas: [formula]
The data for Table 2 were fit to a model with direct elimination from the central compartment (K10) and equilibration with a peripheral compartment (K12 and K21).
(§3) Two types of data were generated from in vivo clearance studies in rabbits. One is from the immunoreactive human tissue-type plasminogen activator which should be a measure of the clearance of the unlabeled material. […] The curves of plasma concentration versus time from the immunoreactivity and the TGA precipitable counts were fit to the appropriate multiexponential models and the derived pharmacokinetic parameters were compared.

[3] = Pharmacokinetics of 125I labeled rt-PA in rabbits, trichloroacetic acid (TCA) precipitable radioactivity, i.v. bolus; assay type: in vivo
Excerpt: Arginine, 0.2M, and citrate, 0.1M, (pH 6.0) and Tween 80, 0.01 percent, was the buffer used at all times. All samples were dialyzed into this buffer prior to iodination. pH was adjusted to 8.2 with Tris base prior to iodination. The iodination mixture was passed across a PD-10 column (Pharmacia) equilibrated with pH 6.0 buffer, the radioactive fractions from the void volume were pooled, SDS-PAGE was run and the dried gel was autoradiographed.
as §1, §2, §3
The remaining modified forms of rt-PA were not available in quantities which would allow the pharmacokinetics to be characterized using the above techniques. Therefore the pharmacokinetic characteristics of these materials were determined following iodination.
The labeled rt-PA was always coinjected with 1 mg/kg of unmodified rt-PA. The rt-PA with high mannose oligosaccharide structures at all glycosylation sites, produced in the CHO 15B cell line, was also included in this experiment.

[4] = system: clot; experiment: In vitro clot lysis assay (Collen et al.), fibrinolytic activity; assay type: biochemical
Excerpt: After reduction and carboxymethylation, 34.2 nmoles (expected number is 35) of carboxymethyl cysteine per nmole of rt-PA were recovered in the periodate-treated sample. […] However, with reduction and carboxymethylation,methionine recoveries increased to 3.3 and 2.8 nmoles for the periodate-treated and untreated materials respectively. […] There was no significant difference in recovery of the other amino acids between the periodate-treated and untreated rt-PA (data not shown). […] The specific activity of the periodate-treated PA was 91% that of the control rt-PA as measured by an in vitro clot lysis assay (Collen, D. et al., J. Clin. Path, 21:705-707 [1968]).

[5] = effect of monosaccharides, rats; cited from earlier work
[6] = system: rat liver endothelial cells; details: cited from earlier work
[7] = effect of PMSF titration of active site or coinjection of diisopropylfluorophosphate thrombin, asialoorosomucoid, macroalbumin or excess unlabeled t-PA; mice; cited from earlier work
[8] = rabbits; cited from earlier work
[9] = humans; cited from earlier work
[10] = system: rat liver hepatocytes; details: in vitro; cited from earlier work
[11] = clinical trials; cited from earlier work
[12] = system: liver; details: in vivo; cited from earlier work
[13] = glycosylated versus deglycosylated; cited from earlier work
[14] = unlabeled rt-PA, i.v. bolus, doses control 1.0, ENDO 0.83, periodate […], n=5, Table 3
[15] = labeled rt-PA 10 μCi/kg, coinjected with 1 mg/kg unmodified rt-PA, Table 5
[16] = immunoreactive rt-PA (IR), unlabeled, 1 mg/kg, n=4, Table 4
[17] = TCA precipitable radioactivity, labeled, 3.4 μCi/kg, n=4, Table 4

urokinase
half-life change [1]: extending the half-life

Periodate
elimination ([2]; FIG. 4, unlabeled): slow the elimination of rt-PA | Microconstant K10 ([2]; unlabeled rt-PA): 63 min^-1 × 10^3 | Microconstant K12 ([2]; unlabeled rt-PA): 72 min^-1 × 10^3 | Microconstant K21 ([2]; unlabeled rt-PA): 54 min^-1 × 10^3 | Vo, difference versus control ([2]; unlabeled): no significant differences | fold slower rate of clearance than control rt-PA ([2]; unlabeled): 2.7 fold | t1/2 alpha, change versus control ([2]; unlabeled): significant increase | t1/2 beta, difference versus control ([2]; unlabeled): no significant differences | Cl [2, 14]: 3.53 mL/min/kg | T1/2 α [2, 14]: 4.22 min | T1/2 β [2, 14]: 37.5 min | rate of clearance versus control ([3]; labeled): smaller rates of clearance than the control rt-PA | relative size of alpha and beta phase ([3]; labeled): the dominant change in the elimination pattern of the Endo-H and Periodate treated rt-PA again appears to be in the relative size of the alpha and beta phase | % AUCα [3, 15]: 32% | % AUCβ [3, 15]: 68% | Cl [3, 15]: 2.74 mL/min/kg | T1/2 α [3, 15]: 3.30 min | T1/2 β [3, 15]: 30.3 min | Vo [3, 15]: 0.0326 L/kg | specific activity relative to control rt-PA ([4]; in vitro clot lysis assay, % of control rt-PA): 91% | fibrinolytic activity ([4]; in vitro clot lysis, versus untreated control): did not alter the activity of the rt-PA significantly

melanoma-derived t-PA: t-PA isolated from melanoma cell line
clearance [5]: unaffected by monosaccharides | uptake [6]: a pathway that could be inhibited by high mannose glycoproteins | elimination [7]: unaffected

Control: wild type recombinant human tissue-type plasminogen activator (rt-PA)
Microconstant K10 ([2]; unlabeled rt-PA): 227 min^-1 × 10^3 | Microconstant K12 ([2]; unlabeled rt-PA): 35 min^-1 × 10^3 | Microconstant K21 ([2]; unlabeled rt-PA): 42 min^-1 × 10^3 | % AUCα [2, 16]: 81.5% | % AUCβ [2, 16]: 18.5% | Cl [2, 16]: 5.51 mL/min/kg | T1/2 α [2, 16]: 21.3 min | T1/2 β [2, 16]: 3.05 min | Vo [2, 16]: 0.03 L/kg | Cl [2, 14]: 9.57 mL/min/kg | T1/2 α [2, 14]: 2.61 min | T1/2 β [2, 14]: 19.6 min | elimination of labeled versus unlabeled rt-PA ([3]; TCA precipitable counts versus immunoreactivity): cleared more slowly | % AUCα [3, 17]: 62.1% | % AUCβ [3, 17]: 37.9% | Cl [3, 17]: 3.92 mL/min/kg | T1/2 α [3, 17]: 30.3 min | T1/2 β [3, 17]: 3.36 min | Vo [3, 17]: 0.0277 L/kg | % AUCα [3, 15]: 52% | % AUCβ [3, 15]: 48% | Cl [3, 15]: 5.72 mL/min/kg | T1/2 α [3, 15]: 2.55 min | T1/2 β [3, 15]: 14.9 min | Vo [3, 15]: 0.0315 L/kg | alpha phase half life [8]: about 2 min | alpha phase half life [9]: 4 min and 6 min | binding affinity [10]: bind with high affinity to rat liver hepatocytes | effect on fibrinogen levels in the blood [11]: minimal effects on fibrinogen levels in the blood | thrombolytic efficacy [11]: extremely effective thrombolytic agent | site of uptake and metabolism [12]: The liver is the most significant site of t-PA uptake and metabolism

deglycosylated human tissue-type plasminogen activator: deglycosylated human tissue-type plasminogen activator (Larsen et al.)
in vivo clearance rate [13]: not significantly different

transferrin: transferrin, serum glycoprotein, after removal of sialic acid
half-life change [1]: no significant effect on half-life
